Results as given in patent US20250059285A1 (ARGENX, published 2025).

T1: human Gal10-His (human, UniProt Q05315 2-142, limits assumed)
T1 construct: also called hGal10-His; human Gal10-His tagged; not shown: His tag
T1 sequence: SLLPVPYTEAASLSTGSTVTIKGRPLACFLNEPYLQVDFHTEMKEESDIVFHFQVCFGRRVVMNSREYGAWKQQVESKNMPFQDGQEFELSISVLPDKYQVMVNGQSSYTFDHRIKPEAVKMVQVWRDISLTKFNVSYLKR

T2: recombinant human Charcot-Leyden crystals (crystalline galectin-10) (human, UniProt Q05315 2-142, limits assumed)
T2 sequence: T1 sequence

B1: g20H09 (Fab) (Fab, V domains shown)
VH: EVQLLESGGGLVQPGGSLRLSCAASGFTFRSYDMSWVRQAPGKGLEWVSAIKWHRITYYADSVKGRFTISRDNSKNTLYLQMNSLRAEDTAVYYCATTHGIGTLGFGSWGQGTLVTVSS
VL: SYELTQPLSVSVALGQTARITCDGNNIGSKSAQWYQQKPGQAPVLVIYADEYRPEGIPERFSGSNSGNTATLTISRAQAGDEADYYCQVWDGSAAVFGGGTQLTVL
notes: same VH/VL
B2: g24F02_N53A (human Fab) (Fab, V domains shown)
VH: EVQLLESGGGLVQPGGSLRLSCAASGFTFSSYAMSWVRQAPGKGLEWVSAINAGGGSTSYADSVKGRFTISRDNSKNTLYLQMNSLRAEDTAVYYCAKGLRVGVLGFDYWGQGTLVTVSS
VL: B1 VL
notes: Human Fab backbone: human CH1 and human lambda constant domain (pUPEX vectors); also called g24F02_N53A_2W

Columns and labels:
human Gal10-His [1] = target: T1, human Gal10-His; test: SPR slope against calibrators on captured Gal10-His; T0 sample
Protocol: (§1) The binding properties of the seven selected clones following two weeks of temperature stress was analysed using an optimized capture method on a Biacore 3000 instrument. The binding properties of the stressed samples were determined, compared to the calibration point, and expressed as a percentage of Relative Activity (% RA).
(§2) Briefly, a capture method was set-up on a Biacore 3000 instrument. For this purpose, a CM5 chip was coated with a monoclonal anti-His antibody (4000 RU), then a fixed concentration of the human Gal10-His (25 μg/mL) was captured on the anti-His chip before receiving duplicate injections of the calibrators, QC samples and temperature stressed samples of each clone. The slope of each injected sample was then calculated using the BIA evaluation software. Concentrations of the QC samples and temperature stressed samples were back-calculated by interpolating the obtained slopes of these samples to the calibrator curve. Obtained values were within +/−20% of the nominal concentration of the tested samples and are expressed as average relative accuracy (avg % RA) (Table 13).

human Gal10-His [2] = target: T1, human Gal10-His; test: competition ELISA on coated Gal10-His; hFab 20 ug/mL, competitor g7B07-hFab-Biot, streptavidin-HRP
Protocol: An epitope binning analysis of the humanized Fab clones was carried out in comparison with the humanized Fab of g7B07.
For this experiment, a sub-optimal concentration of the biotinylated clone g7B07-humanized Fab was added to the Gal10 coated plate and pre-incubated with the selected clones. The percentage competition with g7B07 was then determined (Table 17). Motavizumab (Mota) in a human Fab backbone was used as a negative control (0% competition). Clone g7B07 was used as the positive control for competition and was therefore set as the 100% competition value. The anti-human specific clone 1D11 (binding to Tyrosine 69 residue) was included in the tested panel as a negative control for competition with 7B07 for Gal10 binding because it was known that clone 1D11 binds to the opposite side of Gal10 (including Tyrosine 69).

human Gal10-His [3] = target: T1, human Gal10-His; test: SPR Biacore 3000, Fab periplasmic extract on Gal10-His-coated CM5
Protocol: The binding properties of the Fabs (periplasmic extract) to human Gal10-His were analyzed by SPR with a Biacore 3000 instrument. For this purpose, the diluted periplasmic extract was applied on a CM5 chip coated with human Gal10-His. As a positive control, a 20 nM injection of the purified g7B07 clone in the human Fab backbone was included at the beginning and end of the run.
The binding capacity of the Fab periplasmic extract was analyzed by SPR technology using a Biacore 3000. Briefly, diluted periplasmic extracts were injected on CM5 chip coated with 2500 RU of Gal10-His. The amplitude of the binding (Rmax), the dissociation (off-rate) of each clone, as well as the off-rate fold change compared to the controls (g7B07 and g7B07_N53A) are indicated. Clones g20H09 and g23H09 had similar or better off rate compared to the control g7B07 (Table 10). The randomized part of the CDR2 sequence is underlined (Table 10).

[4] = target: T2, recombinant human Charcot-Leyden …; test: cell-based or functional assay
human Gal10-His [5] = target: T1, human Gal10-His; test: SPR against T0 reference; sample 4 weeks at 5 C, then nebulized
Protocol: (§3) The functional active concentration of the candidates was then assessed by SPR on a Biacore 3000 instrument (FIG. 4). All samples were evaluated with methods meeting the standard qualification criteria. Aliquots were tested at predefined test concentrations against titration curves from reference samples (T0, −80° C. storage) and in the presence of quality control (QC) samples covering a range of 70-130% relative activity (% RA) towards the reference material.
(§4) comparison/reference ⁽¹⁾ samples correspond to aliquots kept at +37° C. for 4 weeks ⁽²⁾ samples correspond to aliquots kept at +5° C. for 4 weeks prior to nebulization. In brief, samples were nebulized with an Aerogen Solo active vibrating mesh nebulizer that converted a drug solution into an inhalable aerosol. Three different devices for each time-point were used per clone and results are reported by the device (nebulizer) serial number. In case of device fouling, indicated by longer nebulization times […]

human Gal10-His [6] = target: T1, human Gal10-His; test: summary of periplasmic extract screening (BLI or SPR)
human Gal10-His [7] = target: T1, human Gal10-His; test: SPR against T0 reference; sample 4 weeks at 37 C
Protocol: as §3, §4

[8] = target: T3, cynomolgus Gal10-His (WGS isoform) (cynomolgus); test: SPR, summary table, cynomolgus_WGS Gal10
T3 construct: also called cynomolgus antigen

human Gal10-His [9] = target: T1, human Gal10-His; test: SPR slope against calibrators on captured Gal10-His; sample 2 weeks at 37 C
Protocol: as §1, §2

human Gal10-His [10] = target: T1, human Gal10-His; test: SPR Biacore 3000, purified hFab (2 conc.) on Gal10-His captured by anti-His CM5
Protocol: (§5) The binding properties of the selected Fab clones to human Gal10 were analyzed via a capture method established on a Biacore 3000 instrument. Two concentrations of the selected Fab clones were tested on human Gal10-His immobilized on a CM5 chip coated with a monoclonal anti-His. As controls, the clone g7B07 and g7B07_N53A were injected at the beginning and the end of the run. Briefly, a CM5 chip was coated with a monoclonal anti-His antibody (4000 RU), then a fixed concentration of the human Gal10-His (25 μg/mL) was captured on the anti-His chip before receiving two concentrations of the clones in the human Fab backbone.

human Gal10-His [11] = target: T1, human Gal10-His; test: SPR, summary table, human Gal10
human Gal10-His [12] = target: T1, human Gal10-His; test: SPR Biacore 3000, purified hFab on captured Gal10-His
Protocol: as §5

human Gal10-His [13] = target: T1, human Gal10-His; test: SPR, overview table of lead Fab candidates
human Gal10-His [14] = target: T1, human Gal10-His; test: SPR Biacore 3000, hFab on human Gal10-His captured by anti-His CM5
Protocol: (§6) The binding properties of the selected clones to human and cynomolgus Gal10 was analyzed via a capture method established on a Biacore 3000 instrument.
(§7) For this purpose, two approaches were used. In the first, two concentrations of the selected clones were applied on cynomolgus (WGS isoform) Gal10-His capture on a CM5 chip coated with a monoclonal anti-His antibody. The second approach involved a serial dilution that was applied on human or cynomolgus (WGS isoform) Gal10-His in the same set-up.

human Gal10-His [15] = target: T1, human Gal10-His; test: SPR Biacore 3000, hFab on captured human Gal10-His; column head prints (M), the text gives nM
Protocol: as §6, §7

human Gal10-His [16] = target: T1, human Gal10-His; test: SPR Biacore 3000, hFab on captured human Gal10-His
Text: as §7
Further characterization of the cynomolgus cross-reactivity of these clones highlighted g24F02_N53A and g23H09.

[17] = target: T3, cynomolgus Gal10-His (WGS isoform); test: SPR Biacore 3000, hFab on captured cynomolgus Gal10-His (WGS); column head prints (M), the text gives nM
Protocol: as §6, §7

[18] = target: T3, cynomolgus Gal10-His (WGS isoform); test: SPR Biacore 3000, hFab on cynomolgus Gal10-His (WGS) captured by anti-His CM5
Protocol: as §6, §7

Row | Binder | % Relative Activity (RA) on Biacore (human Gal10-His [1]) | % Competition against g7B07-Biot (human Gal10-His [2]) | Mean OD value (human Gal10-His [2]) | crystal dissolution % Relative Activity towards the reference T0 after 2 h, nebulized [4] | crystal dissolution % Relative Activity towards the reference T0 after 2 h, stressed [4] | % relative activity by SPR (human Gal10-His [5]) | % relative activity by SPR (human Gal10-His [7]) | Kd [8] | koff [8] | % Relative Activity (RA) on Biacore (human Gal10-His [9]) | Kd (human Gal10-His [10]) | kd-fold drop vs g7B07 (human Gal10-His [10]) | koff (human Gal10-His [10]) | kon (human Gal10-His [10]) | Kd (human Gal10-His [11]) | koff (human Gal10-His [11]) | Kd (human Gal10-His [13]) | koff (human Gal10-His [13]) | also measured
1 | B1 | 110% | 93.2% | 0.33 OD | 66% | 96% | 97% | 101% | 22 nM | 0.046 s⁻¹ | 86% | 17.5 nM | 0.3 fold | 0.015 s⁻¹ | 860000 M⁻¹ s⁻¹ | 17.5 nM | 0.015 s⁻¹ | 17.7 nM | 0.047 s⁻¹ | Fold off-rate compared to g7B07 (human Gal10-His [3]): 1.3 fold; koff (human Gal10-His [3]): 0.0088 s⁻¹; recGal10 crystal dissolution EC50 (T2 h), Assay 1, nebulized [4]: 395 µg/mL; recGal10 crystal dissolution EC50 (T2 h), Assay 1, stressed (4 W at 37 C) [4]: 272 µg/mL; recGal10 crystal dissolution EC50 (T2 h), Assay 1, unstressed (T0) [4]: 260 µg/mL; kd, fold compared to g7B07 (BLI or SPR) (human Gal10-His [6]): 0.8 fold; fold higher dissociation rate than g7B07 (human Gal10-His [12]): 3 fold
2 | B2 | 98% | 99% | 0.2 OD | 120% | 117% | 111% | 103% | 8 nM | 0.0088 s⁻¹ | 99% | 2.3 nM | 2.8 fold | 0.0016 s⁻¹ | 710000 M⁻¹ s⁻¹ | 1.4 nM | 0.0018 s⁻¹ | 1.4 nM | 0.0018 s⁻¹ | Amplitude R0 (human Gal10-His [14]): 647 RU; koff (human Gal10-His [14]): 0.0018 s⁻¹; kon (human Gal10-His [14]): 1.3e+06 M⁻¹ s⁻¹; recGal10 crystal dissolution EC50 (T2 h), Assay 2, nebulized [4]: 159 µg/mL; recGal10 crystal dissolution EC50 (T2 h), Assay 2, stressed (4 W at 37 C) [4]: 164 µg/mL; recGal10 crystal dissolution EC50 (T2 h), Assay 2, unstressed (T0) [4]: 191 µg/mL; Kd (human Gal10-His [15]): 1.43 nM; fold better affinity than g7B07 (human Gal10-His [16]): 6.3 fold; fold better off-rate than g7B07 (human Gal10-His [16]): 3.5 fold; Kd [17]: 8 nM; Amplitude R0 [18]: 544 RU; koff [18]: 0.0088 s⁻¹; kon [18]: 1.1e+06 M⁻¹ s⁻¹; fold better affinity than g7B07 (human Gal10-His [12]): 4.7 fold
